Reference: patent US20050287149A1 (Bristol-Myers Squibb, published 2005)

Tests used:
[1] = target: T1, Bacillus anthracis protective antigen, cleaved 63 kD form (PA63) (Bacillus anthracis, UniProt P13423 197-764); experiment: ELISA, plate coated with PA63 (FIG. 11)
T1 construct: also called cleaved protective antigen (63 kD); active fragment of PA

[2] = target: T2, Bacillus anthracis protective antigen, full-length 83 kD form (PA83) (Bacillus anthracis, UniProt P13423 30-764); experiment: ELISA, plate coated with PA83 (FIG. 11)
T2 construct: mature; also called rPA-83; full length PA 83
T2 sequence (P13423 30-764): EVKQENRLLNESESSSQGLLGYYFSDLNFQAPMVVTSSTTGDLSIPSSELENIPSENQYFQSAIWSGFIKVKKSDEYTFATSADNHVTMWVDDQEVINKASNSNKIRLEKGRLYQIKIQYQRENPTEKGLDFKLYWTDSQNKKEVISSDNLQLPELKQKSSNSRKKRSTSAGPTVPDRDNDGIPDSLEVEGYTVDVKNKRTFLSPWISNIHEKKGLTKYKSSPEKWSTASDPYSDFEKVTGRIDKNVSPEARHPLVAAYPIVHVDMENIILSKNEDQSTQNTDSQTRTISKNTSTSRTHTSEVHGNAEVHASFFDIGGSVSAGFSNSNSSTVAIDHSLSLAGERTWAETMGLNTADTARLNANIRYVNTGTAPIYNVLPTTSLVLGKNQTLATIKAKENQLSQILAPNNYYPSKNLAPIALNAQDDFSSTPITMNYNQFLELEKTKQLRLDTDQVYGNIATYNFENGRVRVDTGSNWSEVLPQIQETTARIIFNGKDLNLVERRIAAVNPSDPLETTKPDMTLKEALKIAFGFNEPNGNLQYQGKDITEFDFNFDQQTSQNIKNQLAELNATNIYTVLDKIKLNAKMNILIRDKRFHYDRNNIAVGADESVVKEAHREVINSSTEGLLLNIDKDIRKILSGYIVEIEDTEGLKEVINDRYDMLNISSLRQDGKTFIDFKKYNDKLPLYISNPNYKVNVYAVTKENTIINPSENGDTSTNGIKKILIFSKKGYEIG

T1 sequence (P13423 197-764 limits assumed): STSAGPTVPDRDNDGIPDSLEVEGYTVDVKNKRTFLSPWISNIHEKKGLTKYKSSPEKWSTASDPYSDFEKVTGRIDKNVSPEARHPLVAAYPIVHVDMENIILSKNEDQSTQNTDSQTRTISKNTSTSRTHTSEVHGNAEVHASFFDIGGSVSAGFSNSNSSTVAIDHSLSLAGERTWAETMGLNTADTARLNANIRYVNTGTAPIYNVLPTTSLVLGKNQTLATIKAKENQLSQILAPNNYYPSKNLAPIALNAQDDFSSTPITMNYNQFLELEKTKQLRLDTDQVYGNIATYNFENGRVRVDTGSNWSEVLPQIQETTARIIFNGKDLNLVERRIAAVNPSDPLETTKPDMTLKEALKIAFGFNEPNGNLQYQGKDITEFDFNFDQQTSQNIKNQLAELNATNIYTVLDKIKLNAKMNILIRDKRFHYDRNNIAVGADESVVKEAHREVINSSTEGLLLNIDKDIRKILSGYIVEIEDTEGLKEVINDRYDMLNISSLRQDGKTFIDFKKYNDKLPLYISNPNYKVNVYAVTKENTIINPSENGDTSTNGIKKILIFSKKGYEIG

Row | Binder | binding result [1] | binding result [2]
1 | human monoclonal antibody 2D5 (antibody, V domains shown, also called HuMab 2D5) VH: QVQLVESGGGVVQPGRSLRLSCAASGFTFSSYGMHWVRQAPGKGLEWVAVIWNDGSNKYYADSVKGRFTISRDNSKNTLYLQMNSLRAEDTAVYYCARENWGEYFDYWGQGTLVTVSS VL: AIQLTQSPSSLSASVGDRVTITCRASQGISSALAWYQQKPGKAPKLLIYDASSLKSGVPSRFSGSGSGTDFTLTISSLQPEDFATYYCQQFNSYWTFGQGTKVEIK | binds | binds
2 | human monoclonal antibody 5D5 (antibody, V domains shown, also called HuMab 5D5; 5D5-2E10) VH: QVQLVESGGGVVQPGRSLRLSCAASGFTFSSYGMHWVRQAPGKGLEWVAVIWYDGSNKYYADSVKGRFTISRDNSKNTLYLQMNSLRAEDTAVYYCAREGNRSHYIPFAYWGQGTLVTVSS VL: DIQMTQSPSSLSASVGDRVTITCRASQGISSWLAWYQQKPEKAPKSLIYAASSLQSGVPSRFSGSGSGTDFTLTISSLQPEDFATYYCQQYNSYPRTFGGGTKVEIK | binds | binds
3 | human monoclonal antibody 2H4 (antibody, V domains shown, also called HuMab 2H4) VH: EVHLVESGGGLVQPGGSLRLSCAASGFTFSSYWMSWVRQAPGKGLEWVANINQYGSEKYYVDSVKGRFTISRDNAKNSLYLQMNSLRAEDTAVYYCARDSPYYYGSGSYYRGYWYFDLWGRGTLVTVSS VL: DIQMTQSPSSLSASVGDRVTITCRASQGISSWLAWYQQKPEKAPKSLIYAASSLQSGVPSRFSGSGSGTDFTLTISSLQPEDFATYYCQQYNSYPPTFGQGTRLEIK | binds | binds
